Consider 1 molecule from patent US20240010748A1.

The assay has as its target murine Claudin 18.2 (mCLDN18.2) on stably-transfected HEK293 cells (murine) (UniProt P56857). Briefly: FACS on HEK293-mCLDN18.2 cells.

B1: h160C9AA (antibody, human IgG1, lambda, L234A L235A, V domains shown)
VH: EVKLVESGGGLVQPGGSLKLSCAASGFTFNTYAMNWVRQAPGKGLEWVARIRSKYNNYATYYADSVKDRFTISRDDAKNTLYLQMNNLRTEDTAVYYCVRHGNFGNSYVSWFAYWGQGTLVTVSS
VL: QAVVTQEPSLTVSPGGTVTLTCRSSTGAVTTSNYANWVQQKPGQAPRGLIGGTNKRAPGTPARFSGSLLGGKAALTLSGAQPEDEAEYYCALWYSNLWVFGGGTKLTVLG
With B1, the MFI (Max) is 543 MFI.
